The chains are these.
B1: Transcription cofactor vestigial-like protein 4 (Homo sapiens), Q14135 (parent)
chain: METPLDVLSRAASLVHADDEKREAALRGEPRIQTLPVASALSSHRTGPPPISPSKRKFSMEPGDEDLDCDNDHVSKMSRIFNPHLNKTANGDCRRDPRERSRSPIERAVAPTMSLHGSHLYTSLPSLGLEQPLALTKNSLDASRPAGLSPTLTPGERQQNRPSVITCASAGARNCNLSHCPIAHSGCAAPGPASYRRPPSAATTCDPVVEEHFRRSLGKNYKEPEPAPNSVSITGSVDDHFAKALGDTWLQIKAAKDGASSSPESASRRGQPASPSAHMVSHSHSPSVVS

The values that follow come from IntAct's records for PubMed 24525233.

The first assay covers variants of B1. The note with it: with tead4_human TEAD4, Q15561.
Sequence of tead4_human TEAD4, Q15561 (Q15561 whole entry): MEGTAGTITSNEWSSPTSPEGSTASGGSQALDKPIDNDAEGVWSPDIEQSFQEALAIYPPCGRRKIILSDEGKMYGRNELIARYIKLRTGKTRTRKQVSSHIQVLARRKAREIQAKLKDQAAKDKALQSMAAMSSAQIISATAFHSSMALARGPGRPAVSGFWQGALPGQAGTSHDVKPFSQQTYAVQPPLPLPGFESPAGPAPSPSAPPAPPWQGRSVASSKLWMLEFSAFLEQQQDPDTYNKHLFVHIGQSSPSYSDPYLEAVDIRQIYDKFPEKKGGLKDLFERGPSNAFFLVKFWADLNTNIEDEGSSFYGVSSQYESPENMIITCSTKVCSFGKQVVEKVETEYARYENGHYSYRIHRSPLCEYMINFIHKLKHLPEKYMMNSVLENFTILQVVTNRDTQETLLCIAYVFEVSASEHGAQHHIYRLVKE
In the case of H240A;F241A, the “effect of a mutation on the interaction” value is “decreasing interaction”. Same read-out and setting: the entry for H212A;F213A;H240A;F241A is “disrupting interaction”; for H240A it is “decreasing interaction”; for L245A it is “decreasing interaction”.

In the next assay the parent is B1. The note with it: with tead4_human TEAD4, Q15561. This is another data set of the same source.
With W249A, the “effect of a mutation on the interaction” value is “decreasing interaction”.
